Values quoted from earlier work, collected in publication PMC4221657.

Legend:
[1] = molecular target: VPAC2 receptor (Homo sapiens) (UniProt P41587)
[2] = molecular target: VPAC1 receptor (Homo sapiens) (UniProt P32241)
[3] = molecular target: PAC1 receptor (Homo sapiens) (UniProt P41586)
UniProt P41586, sequence (P41586 21-468): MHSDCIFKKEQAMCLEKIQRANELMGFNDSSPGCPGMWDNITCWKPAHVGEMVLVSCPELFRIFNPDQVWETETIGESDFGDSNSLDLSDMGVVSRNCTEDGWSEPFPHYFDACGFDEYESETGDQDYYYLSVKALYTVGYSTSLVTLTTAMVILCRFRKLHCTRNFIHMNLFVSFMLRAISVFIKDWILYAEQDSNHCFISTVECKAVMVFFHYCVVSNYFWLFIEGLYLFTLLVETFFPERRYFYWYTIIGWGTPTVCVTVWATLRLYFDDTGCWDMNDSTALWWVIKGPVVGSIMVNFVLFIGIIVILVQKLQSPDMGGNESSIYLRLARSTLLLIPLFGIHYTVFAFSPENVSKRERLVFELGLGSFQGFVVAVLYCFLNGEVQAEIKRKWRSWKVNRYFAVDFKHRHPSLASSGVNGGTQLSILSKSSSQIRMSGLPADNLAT

UniProt P32241, sequence (P32241 31-457): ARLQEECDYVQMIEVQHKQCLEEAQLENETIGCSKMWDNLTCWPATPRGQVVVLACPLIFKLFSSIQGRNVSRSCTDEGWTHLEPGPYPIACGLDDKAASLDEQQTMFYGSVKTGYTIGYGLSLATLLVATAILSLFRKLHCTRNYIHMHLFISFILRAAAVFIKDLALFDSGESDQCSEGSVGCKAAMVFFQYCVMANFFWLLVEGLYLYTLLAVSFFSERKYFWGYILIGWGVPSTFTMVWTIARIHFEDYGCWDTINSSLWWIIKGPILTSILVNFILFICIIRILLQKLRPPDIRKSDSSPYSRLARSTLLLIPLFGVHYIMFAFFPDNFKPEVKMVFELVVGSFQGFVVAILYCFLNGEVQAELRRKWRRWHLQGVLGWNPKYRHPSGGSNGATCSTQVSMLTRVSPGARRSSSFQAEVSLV
UniProt P41587, sequence (P41587 24-438): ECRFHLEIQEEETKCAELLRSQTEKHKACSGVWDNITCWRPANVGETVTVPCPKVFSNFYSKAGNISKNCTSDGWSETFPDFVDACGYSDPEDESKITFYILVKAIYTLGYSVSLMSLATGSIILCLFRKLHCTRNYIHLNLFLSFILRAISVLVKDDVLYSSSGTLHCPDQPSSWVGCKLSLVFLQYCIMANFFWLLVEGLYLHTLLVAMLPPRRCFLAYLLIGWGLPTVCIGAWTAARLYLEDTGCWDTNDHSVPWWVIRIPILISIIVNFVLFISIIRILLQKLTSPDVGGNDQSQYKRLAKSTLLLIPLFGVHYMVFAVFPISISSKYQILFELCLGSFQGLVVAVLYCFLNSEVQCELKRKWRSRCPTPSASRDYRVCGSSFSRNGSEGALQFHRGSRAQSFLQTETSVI

- Kd [1]: 1 nM
- Kd [2]: 1 nM
- Kd [3]: 0.5 nM
Substance: PACAP38 (from UniProt P18509)
